± gives the half width of the 95% confidence interval.
Columns and labels:
[1] = folding stability dG unfold from trypsin proteolysis; higher = more stable
How it was run: (§1)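 Mini-proteins designed to be under 80 residues and free of cysteine were carried in a PA-tagged cDNA display construct and digested with trypsin and with chymotrypsin. Each protease was applied at 11 threefold-diluted concentrations, alongside a no-protease condition, before sequencing. K50 came from Bayesian fitting of the sequencing counts, and unfolding free energy was obtained by comparing it with a sequence-predicted unfolded-state K50 and a shared folded-state K50, for each protease separately or for both together. Designs were retained only if their AlphaFold2 dimer inter-PAE exceeded 15.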

[2] = folding stability dG unfold from chymotrypsin proteolysis; higher = more stable
How it was run: as §1

[3] = folding stability dG unfold (combined trypsin and chymotrypsin); higher = more stable
How it was run: as §1

Question: Which “folding stability dG unfold” value [1] does the source give for “SAGGSAGGSGKPEKVKITYTKDTNTNKYTATITFENGPTYKITFPTKTPEEAIEQAKKLIEASSAGGSAGGS [r12_339_TrMRF]” here?
Answer: The value was 1.62 ± 0.061 kcal/mol.

Question: And the “folding stability dG unfold” value [2]?
Answer: The value was 2.05 ± 0.032 kcal/mol.

Question: And the “folding stability dG unfold” value [3]?
Answer: Its value is 1.94 ± 0.15 kcal/mol.

Question: For “SAGGETKTFTIDEIRAKLKEALDNGIDEVRITVFRDGKEEEITIPASKLDEIIASLPPDATVRIERVSAGGS [r16_636_TrROS_Hall]”, which “folding stability dG unfold” value [1] is on record?
Answer: Its value is 2.02 ± 0.042 kcal/mol.

Question: And the “folding stability dG unfold” value [2]?
Answer: Its value is 1.86 ± 0.11 kcal/mol.

Question: What about the “folding stability dG unfold” value [3] of the same sequence?
Answer: Its value is 1.97 ± 0.13 kcal/mol.

Question: Which “folding stability dG unfold” value [1] does the source give for “SAGGSAPPDTPLATIEFTLTPPDGSTTPTTITVPPSVVEEAAAAQKAAFEAAGWATTVTVATTTPLSAGGSA [r2_274_JUSTAS]” here?
Answer: Its value is 0.676 ± 0.015 kcal/mol.

Question: And the “folding stability dG unfold” value [2]?
Answer: Its value is 0.246 ± 0.1 kcal/mol.

Question: And the “folding stability dG unfold” value [3]?
Answer: Its value is 0.526 ± 0.034 kcal/mol.

Question: Which “folding stability dG unfold” value [1] does the source give for “SAGGSAGGSAGGMKVTTINLPDGTTIEYYPETGSVTIHPSDGSVSTRPDLTLEDVLAALSAGGSAGGSAGGS [r10_569_JUSTAS]” here?
Answer: Its value is 2.38 ± 0.066 kcal/mol.

Question: And the “folding stability dG unfold” value [2]?
Answer: Its value is 1.81 ± 0.031 kcal/mol.

Question: What about the “folding stability dG unfold” value [3] of the same sequence?
Answer: Its value is 2.07 ± 0.051 kcal/mol.

Question: Which “folding stability dG unfold” value [1] does the source give for “SAGGPVIEVESLEELKKALELLKEGKEVVIRVRVRRTETLPDGRKRVEEREVVYRATVEDGKLTIEPLSAGG [r13_835_TrROS_Hall]” here?
Answer: The value was 2.93 ± 0.092 kcal/mol.

Question: And the “folding stability dG unfold” value [2]?
Answer: The value was 3.91 ± 0.13 kcal/mol.

Question: And the “folding stability dG unfold” value [3]?
Answer: Its value is 3.56 ± 0.12 kcal/mol.

Question: With “SAGGSAGGSMIVKLEDGTYLVRIVNKDTKEVIEIEVSAEEAEELAKELNIEKVEIVKAGEPLESAGGSAGGS [r12_294_TrROS_Hall]” as the sequence, how does the “folding stability dG unfold” value [1] read?
Answer: The value was 1.78 ± 0.069 kcal/mol.

Question: What about the “folding stability dG unfold” value [2] of the same sequence?
Answer: Its value is 2.71 ± 0.059 kcal/mol.

Question: What about the “folding stability dG unfold” value [3] of the same sequence?
Answer: The value was 2.38 ± 0.17 kcal/mol.

Question: With “SAGGSAGGSAGGPTVTLTLEVPVEDAEELAKALEDAGKARVTKVERNEDGFLRITVEFEDSAGGSAGGSAGG [r7_589_TrROS_Hall]” as the sequence, how does the “folding stability dG unfold” value [1] read?
Answer: Its value is 0.593 ± 0.048 kcal/mol.

Question: And the “folding stability dG unfold” value [2]?
Answer: The value was 1.28 ± 0.027 kcal/mol.

Question: And the “folding stability dG unfold” value [3]?
Answer: Its value is 1.06 ± 0.075 kcal/mol.

Question: Which results are given for “SAGGSAGGSMELVIKTVTVNSPSKSPEELAKEIEEKYGVKILKVEVTEDPEGGVTVTATIINKSAGGSAGGS [r12_359_JUSTAS]”?
Answer: folding stability dG unfold [1]: 1.72 ± 0.065 kcal/mol; folding stability dG unfold [2]: 1.34 ± 0.015 kcal/mol; folding stability dG unfold [3]: 1.49 ± 0.041 kcal/mol

Question: Which “folding stability dG unfold” value [1] does the source give for “SAGGSAMIEEKLIEIPPIPVPYPDGSVQKVPVLVEETVELKPFIDPNTDKTSTAKTVTKRKVIFPSSAGGSA [r15_884_JUSTAS]” here?
Answer: The value was -0.255 ± 0.21 kcal/mol.

Question: And the “folding stability dG unfold” value [2]?
Answer: Its value is 0.76 ± 0.084 kcal/mol.

Question: What about the “folding stability dG unfold” value [3] of the same sequence?
Answer: Its value is 0.379 ± 0.15 kcal/mol.

Question: For “SAGGSAGGSPGNYIIQIEIKFPGRKHTWHVDSPEEALEQLKNDLEKQHPNAPITDVEIEVFPLSAGGSAGGS [r12_429_TrROS]”, which “folding stability dG unfold” value [1] is on record?
Answer: Its value is 0.791 ± 0.2 kcal/mol.

Question: What about the “folding stability dG unfold” value [2] of the same sequence?
Answer: The value was 0.155 ± 0.94 kcal/mol.

Question: And the “folding stability dG unfold” value [3]?
Answer: Its value is 0.556 ± 0.46 kcal/mol.

Question: With “SAGGSAGGSKPEIRKIKIYTKEGGKKIIPVNGTVIEIDGKKYKVKPNDKIKVPKNVKKIEPEGSAGGSAGGS [r12_779_TrMRF]” as the sequence, how does the “folding stability dG unfold” value [1] read?
Answer: The value was -0.395 ± 0.25 kcal/mol.

Question: What about the “folding stability dG unfold” value [2] of the same sequence?
Answer: Its value is 0.153 ± 0.19 kcal/mol.

Question: And the “folding stability dG unfold” value [3]?
Answer: Its value is 0.028 ± 0.22 kcal/mol.

Question: With “SAGGSAMSLEELKGHLVRLTLPDGRVVVAPVKEMDEEAPVLVIEFGGKPILIPKDAPVKLEVLPPGSAGGSA [r15_355_TrMRF]” as the sequence, how does the “folding stability dG unfold” value [1] read?
Answer: Its value is 0.962 ± 0.039 kcal/mol.

Question: And the “folding stability dG unfold” value [2]?
Answer: The value was 0.581 ± 0.052 kcal/mol.

Question: And the “folding stability dG unfold” value [3]?
Answer: Its value is 0.759 ± 0.062 kcal/mol.

Question: With “SAGGSAGGSAGGSKELTVLVVEKNEDGTLTVRKFKIELKDGELKIVEEEEKTVPLEELKSAGGSAGGSAGGS [r4_389_TrROS_Hall]” as the sequence, how does the “folding stability dG unfold” value [1] read?
Answer: The value was 1.41 ± 0.074 kcal/mol.

Question: And the “folding stability dG unfold” value [2]?
Answer: The value was 2.42 ± 0.037 kcal/mol.

Question: What about the “folding stability dG unfold” value [3] of the same sequence?
Answer: Its value is 2.04 ± 0.12 kcal/mol.

Question: Which “folding stability dG unfold” value [1] does the source give for “SAGGSAGGESSRLVAVFKFPPSNPNIKTSISFPSLPKSAKISESQAPFGNEYYLVVVIEVPKNSSAGGSAGG [r6_480_TrMRF]” here?
Answer: Its value is 2.6 ± 0.16 kcal/mol.

Question: What about the “folding stability dG unfold” value [2] of the same sequence?
Answer: The value was 3.88 ± 0.14 kcal/mol.

Question: What about the “folding stability dG unfold” value [3] of the same sequence?
Answer: The value was 3.37 ± 0.16 kcal/mol.

Question: For “SGEIIGEQTFPVEDGGKVPVKIYKNPGNLYAEVFNDDDKPIQEQEIPPDDDLEDIENIKLPPGAWVRIYWSA [r9_215_TrROS]”, which “folding stability dG unfold” value [1] is on record?
Answer: Its value is 0.205 ± 0.14 kcal/mol.

Question: What about the “folding stability dG unfold” value [2] of the same sequence?
Answer: The value was 0.368 ± 0.39 kcal/mol.

Question: And the “folding stability dG unfold” value [3]?
Answer: Its value is 0.433 ± 0.3 kcal/mol.

Question: With “SAGKTITVTSTHPDGRTATVTYTTLPDGSFKITSFTWEPWPDGTVTAKITTPDGTVITVNSIDDILKALSAG [r5_618_TrMRF]” as the sequence, how does the “folding stability dG unfold” value [1] read?
Answer: The value was 2.4 ± 0.1 kcal/mol.

Question: And the “folding stability dG unfold” value [2]?
Answer: Its value is 3.52 ± 0.05 kcal/mol.

Question: What about the “folding stability dG unfold” value [3] of the same sequence?
Answer: Its value is 3.27 ± 0.099 kcal/mol.

Question: What does the source list for “SAGGKKIRIVMTEEEIKKLAEALAKELNVEVKIVKVEKKTVFDKNGKPVKTYVVVEIEVKKLPPGVKLSAGG [r13_943_TrROS_Hall]”?
Answer: folding stability dG unfold [1]: 1.3 ± 0.099 kcal/mol; folding stability dG unfold [2]: 1.56 ± 0.056 kcal/mol; folding stability dG unfold [3]: 1.57 ± 0.16 kcal/mol

Question: For “SAMKEGEEYEPVEKKKITIKNKKTNKTIEIEVVRNKKTNKYIVKITTKDGKKIEIVVSKEELEKLLKKLSAG [r14_240_TrROS_Hall]”, which “folding stability dG unfold” value [1] is on record?
Answer: Its value is 2.25 ± 0.19 kcal/mol.

Question: And the “folding stability dG unfold” value [2]?
Answer: Its value is 3.08 ± 0.17 kcal/mol.

Question: What about the “folding stability dG unfold” value [3] of the same sequence?
Answer: The value was 3.01 ± 0.26 kcal/mol.

Question: For “SAGMSITIESDTNAPPDLPDIGEEEKLALAEELKEKALADPRYPDEEVVIVRPFKTPGGARWTITVVVSAGG [r19_132_JUSTAS]”, which “folding stability dG unfold” value [1] is on record?
Answer: Its value is 1.31 ± 0.042 kcal/mol.

Question: What about the “folding stability dG unfold” value [2] of the same sequence?
Answer: Its value is 1.29 ± 0.24 kcal/mol.

Question: And the “folding stability dG unfold” value [3]?
Answer: The value was 1.32 ± 0.17 kcal/mol.

Question: For “SAGGSAGGSSMKVEVTVEPVDPARGLYRVTITLYDPNSDTPLKTVPVLAESPEEIEAAILELLSAGGSAGGS [r12_26_JUSTAS]”, which “folding stability dG unfold” value [1] is on record?
Answer: Its value is 2.55 ± 0.11 kcal/mol.

Question: What about the “folding stability dG unfold” value [2] of the same sequence?
Answer: The value was 2.91 ± 0.05 kcal/mol.

Question: What about the “folding stability dG unfold” value [3] of the same sequence?
Answer: Its value is 2.67 ± 0.12 kcal/mol.

Question: Which results are given for “SMVQGTVLPPNGQRLTFEFDPAGTAQERAEQVRALLEALLPPDLKIEVERVEPDRPISADEPGTVLARADSA [r9_178_TrMRF]”?
Answer: folding stability dG unfold [1]: -0.914 ± 0.56 kcal/mol; folding stability dG unfold [2]: 0.0574 ± 0.19 kcal/mol; folding stability dG unfold [3]: -0.248 ± 0.28 kcal/mol

Reference: the supplement of paper PMC12764529
